± gives the uncertainty stated by the source.

The nature of this data set: amyloid nucleation score (Sup35N fusion, yeast selection) (log enrichment); library NNK1; higher = more nucleation; inactive = no reads after selection. The method in brief: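 Plasmid inserts were Illumina-sequenced at input and output from psi-negative yeast expressing Sup35N fused to peptides of 20 random codons. The yeast were induced with 100 μM copper sulfate for 24 hours and grown 7 days at 30°C on medium lacking adenine and uracil, and sequences with under 100 input reads were excluded. Nucleation score is the DiMSum log enrichment of output over input reads, centred on the mode score of non-aggregating sequences.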
NLRQHVYICYNLNGRTHFLW came in with an amyloid nucleation score of 6.719 ± 0.047.

As for NLSAVRLAYLPCVSHTHCAV, the amyloid nucleation score was 0.875 ± 0.45.

In turn, NLSSLSWVTIYKNFCAIMSS registered an amyloid nucleation score of -0.378 ± 0.58.

NLSWRISKHMALGVRCLWCH came in with an amyloid nucleation score of 0.791 ± 0.72.

NLTRITF displayed an amyloid nucleation score of -0.762 ± 1.1.

As for NLTVCVQCNAAYCNYLSHRD, the amyloid nucleation score came to 7.517 ± 0.071.

NLVAAYRY registered an amyloid nucleation score of 0.146 ± 0.45.

Substance NLVFSMPAVWALVYVFTLFI displayed an amyloid nucleation score of 1.51 ± 0.37.

Regarding NMAMYSIWGGWWMVLFCVLL, the amyloid nucleation score entry was “inactive”.

NMCFYELDGYMLGNYLARQF gave an amyloid nucleation score of -1.51 ± 1.3.

NMEWYRTFCSQCYIGRRGTS had an amyloid nucleation score of 0.476 ± 0.9.

As to NMIKYVTLKMRL, the amyloid nucleation score was 0.328 ± 0.6.

In turn, NMLAQSRSSVIAPLRRVWPV registered an amyloid nucleation score of 0.889 ± 0.77.

NMWGVGDVTGIF had an amyloid nucleation score of 1.62 ± 0.59.

NNAGYRYALRKISSHLLRPV yielded an amyloid nucleation score of -0.092 ± 0.44.

As for NNCANIGRIEFMPGHYDMCV, the amyloid nucleation score was 1.11 ± 0.36.

Take NNKQYLI: the amyloid nucleation score was found to be 1.59 ± 0.38.

As to NNLILPGWM, the amyloid nucleation score is -0.612 ± 0.55.

Regarding NNLRYPCLGRCSISFGMVCG, the amyloid nucleation score turned out to be 0.593 ± 0.41.

NNLSANVSLGPGCAGGQPRA came in with an amyloid nucleation score of 0.764 ± 0.61.

The substance NNNESEWMRGFSLKEGPTQE showed an amyloid nucleation score of 0.111 ± 0.84.

NNRHGYFNFCWWKEFLVKRE: the amyloid nucleation score result is “inactive”.

Consider NNRNQAMKVYNLVSLIEAKR, for which the amyloid nucleation score was -0.218 ± 1.

The substance NNTFGLGNFTDSFCNIRSEK displayed an amyloid nucleation score of 0.572 ± 0.39.

Consider NNTFIMLIF, for which the amyloid nucleation score was found to be 6.98 ± 0.083.

With NNTFQIVLRFSGRHIDFNRR, the amyloid nucleation score turned out to be 7.639 ± 0.064.

Regarding NNVLCSGKMGRLCVGCIMPC, the amyloid nucleation score is -0.507 ± 1.5.

The substance NNWSVQSGNFTFCSGRGLCS displayed an amyloid nucleation score of 7.438 ± 0.054.

As to NPAGF, the amyloid nucleation score is 0.558 ± 1.1.

Take NPLHGARFLIGNVFIIRNFK: the amyloid nucleation score is 5.52 ± 0.073.

For the substance NPLTGAL, the amyloid nucleation score is -0.406 ± 0.56.

For NPTNVSVWGTRGPGCVDYWY, the amyloid nucleation score was -0.304 ± 0.41.

NPWIT gave an amyloid nucleation score of 1.65 ± 0.35.

In the case of NQNAGELNKFPWDRWKYLYV, the amyloid nucleation score was -1.1 ± 0.74.

NRDQRKGIVFTWAVVEPKLP registered an amyloid nucleation score of 0.413 ± 0.97.

As for NRECYYRPGNALNHGFFQIL, the amyloid nucleation score was found to be 0.479 ± 1.2.

With NRFYL, the amyloid nucleation score amounted to 0.597 ± 0.4.

Regarding NRKEFKCSRWHRGNWYVNAR, the amyloid nucleation score was -0.378 ± 0.79.

The substance NRTYVGWEVILPKVWNSSVY had an amyloid nucleation score of -0.663 ± 0.61.

In turn, NRYGWHSPDVPLAHIS had an amyloid nucleation score of -0.029 ± 0.87.

Consider NRYRCYDCTLVGRVSYS, for which the amyloid nucleation score is -0.436 ± 0.29.

Substance NSAPDP yielded an amyloid nucleation score of -0.948 ± 2.4.

Consider NSCFQSSIYVTSYTWECSP, for which the amyloid nucleation score result was “inactive”.

For the substance NSCRTRLVTRGCSTVPNMWM, the amyloid nucleation score was -0.17 ± 0.43.

NSDNSGWWRLLYIVESGISS: the amyloid nucleation score was 0.019 ± 1.4.

In the case of NSGEEYVRVEGNCAFKSLSC, the amyloid nucleation score amounted to 0.416 ± 0.15.

As to NSHRNSWSYMRHYSQSLMC, the amyloid nucleation score worked out at 0.227 ± 0.74.

NSIDFVFDDGVLIRFVIKVS: the amyloid nucleation score entry is “inactive”.

NSMSNF returned an amyloid nucleation score of -1.08 ± 2.4.

Regarding NSNLVFFRQYIYTVLYTNSF, the amyloid nucleation score is 5.817 ± 0.048.

Turning to NSRAGLYVISSSYCRSMLDR, the amyloid nucleation score was determined as 1.48 ± 0.39.

NSRGAQVCDICSIRMFNCCP registered an amyloid nucleation score of 7.149 ± 0.048.

NSRNDLVMLILLPSSRAGRL displayed an amyloid nucleation score of 0.325 ± 0.99.

Regarding NSTSCCVMGVSVRFMSFF, the amyloid nucleation score was determined as 7.498 ± 0.069.

In the case of NSVFVPFGKEF, the amyloid nucleation score was -0.493 ± 0.39.

In turn, NTAFLAVLSNALMVGMYSLL displayed an amyloid nucleation score of 0.606 ± 0.58.

NTCEGGKCSYKVVSFLYLKY came in with an amyloid nucleation score of 0.497 ± 0.5.

NTCYALIMVLYRRDRGPANM gave an amyloid nucleation score of 1.55 ± 0.17.

Regarding NTGWDRGHGCSLMFHRVLEW, the amyloid nucleation score amounted to 2.67 ± 0.13.

Substance NTHILYVWSVMCGHMN returned an amyloid nucleation score of 3.35 ± 0.11.

NTMLQKVKCWKRRVDSSRQE registered an amyloid nucleation score of 0.093 ± 0.87.

NTYWVSSAS displayed an amyloid nucleation score of 0.078 ± 0.64.

NVCPFWGYKDAW had an amyloid nucleation score of 0.435 ± 0.22.

As for NVFLVRAYLMENVHFYDFMC, the amyloid nucleation score came to 4.54 ± 0.14.

The substance NVILFNYLREILRLCYMACM showed an amyloid nucleation score of 0.758 ± 0.81.

NVIWVASYF returned an amyloid nucleation score of -0.914 ± 0.44.

The substance NVIYFNVLVAPLHIPMLDLG registered an amyloid nucleation score of 3.75 ± 0.14.

Take NVKICDGAIIYMSSMASFEL: the amyloid nucleation score worked out at 4.79 ± 0.092.

The substance NVMCAGYIIMGATMYKKWVM came in with an amyloid nucleation score of 0.902 ± 0.29.

The substance NVSDWSHVFMSMFLIMGGCN displayed an amyloid nucleation score of 0.509 ± 0.66.

Turning to NVSSIFITQY, the amyloid nucleation score result was “inactive”.

NVSVENLGYTLSIPSSMICS registered an amyloid nucleation score of 0.319 ± 0.23.

With NVSVVSSHMLICMGMATRNP, the amyloid nucleation score is 1.92 ± 0.36.

Take NVTIVGS: the amyloid nucleation score was determined as 1.02 ± 0.46.

For NVWLWDTKFILQTRIPS, the amyloid nucleation score was -0.026 ± 1.7.

NVYWNRWAMTFWLSGDEMWF: the amyloid nucleation score is 1.27 ± 0.42.

Substance NWAKGNCYVAFRLKWRYNCG had an amyloid nucleation score of 0.745 ± 0.74.

In turn, NYCFLNQDFCD came in with an amyloid nucleation score of 3.61 ± 0.2.

As to NYCYSFIKYPLEPVKFLSAV, the amyloid nucleation score is -0.239 ± 1.1.

The substance NYREGVVIILNNPDYCRRER displayed an amyloid nucleation score of 6.36 ± 0.091.

As to NYSYNYLVVKRENTGYSGQV, the amyloid nucleation score was found to be 0.917 ± 0.42.

NYSYVTWNLFGQSPICSLWY showed an amyloid nucleation score of 6.103 ± 0.049.

Take NYVGWLLCASILVRYNGTLE: the amyloid nucleation score came out at 1.26 ± 0.77.

The substance NYVIGRVIISMYGNDVTRLP gave an amyloid nucleation score of 4.23 ± 0.095.

PALDAYSQKFELTCCLDTLH: the amyloid nucleation score result is “inactive”.

PCFSLLDSQRFVFGAKIILR gave an amyloid nucleation score of 0.093 ± 0.69.

In the case of PCLVSCHPGADAYLYDNLEV, the amyloid nucleation score was -0.856 ± 2.4.

PCSVISGHLTSMSSLSLFGG: the amyloid nucleation score was -0.299 ± 0.32.

As to PCTRHCLRLHLAFMWLILAI, the amyloid nucleation score is -0.31 ± 0.4.

Substance PCYAVYITAPINV gave an amyloid nucleation score of 5.94 ± 0.093.

With PDCRSYLTIF, the amyloid nucleation score was found to be 0.486 ± 0.31.

PDGPANSSKDGDFCDKLR showed an amyloid nucleation score of 1.4 ± 0.6.

On to PDVVSTSLILGGLNSPELEH, for which the amyloid nucleation score is 0.016 ± 0.6.

The substance PFGGDFTF showed an amyloid nucleation score of 0.187 ± 0.24.

Turning to PFLAKVLCNVWNI, the amyloid nucleation score stood at 6.8 ± 0.047.

The substance PFNFIPFAYRLYRKTYRTSH registered an amyloid nucleation score of 0.165 ± 0.46.

As to PFQECFLRKVYWIIWRSRPK, the amyloid nucleation score came to 0.255 ± 1.2.

Substance PFSVWSPPMMDPVHNIFWVR displayed an amyloid nucleation score of -0.203 ± 0.49.

As for PFVNW, the amyloid nucleation score came to 0.432 ± 0.84.

Take PGLLMNRVPVSSTQYIYLEQ: the amyloid nucleation score is 0.029 ± 0.75.

For the substance PGSANASLTERFLMKMVGED, the amyloid nucleation score is 0.053 ± 0.78.

Substance PGYYLEYFLYVNLSWAKTWG returned an amyloid nucleation score of 0.018 ± 0.27.

In the case of PHDSFLMHTDSGEHWGPVYR, the amyloid nucleation score amounted to 0.037 ± 0.36.

Substance PHIIFNVVTITYMISALRHV displayed an amyloid nucleation score of 3.49 ± 0.09.

Substance PHYRTSFVKHPLL yielded an amyloid nucleation score of 0.73 ± 0.54.

The substance PIFAVTKVQVMRPH came in with an amyloid nucleation score of -1.94 ± 2.7.

PIKEVPNTSRLLFSVCMKWH gave an amyloid nucleation score of 0.504 ± 0.74.

PIVLWTIIPNTFKS gave an amyloid nucleation score of 1.25 ± 0.17.

As for PIYGFCSIALGSMLIIPRLL, the amyloid nucleation score was -1.05 ± 0.77.

For PKFSLMQLTPGLGTQ, the amyloid nucleation score was found to be 3.13 ± 0.13.

PKMAPRNINVGRS: the amyloid nucleation score turned out to be 0.26 ± 0.54.

With PLFVVRIDEISSDSIRGAGH, the amyloid nucleation score amounted to 1.88 ± 0.53.

On to PLHAANDLSCPENLDVWYHE, for which the amyloid nucleation score is -0.696 ± 0.83.

PLKFTSSMSG: the amyloid nucleation score is -1.23 ± 0.51.

PLRDGA displayed an amyloid nucleation score of -0.856 ± 2.4.

The substance PLRDKESVLMWLYSYWVTNI yielded an amyloid nucleation score of 0.017 ± 0.32.

For the substance PLTVVLRSV, the amyloid nucleation score result is “inactive”.

On to PMIPKFMSERCQLIWWM, for which the amyloid nucleation score is 0.961 ± 0.7.

For PMLNFEIMVRHDRRRLYKVC, the amyloid nucleation score was found to be 0.714 ± 0.42.

In turn, PMVTSSCFRCTLLCSQFWQF registered an amyloid nucleation score of 0.444 ± 0.26.

PNIEPCLSSFVSKSLDDPRT gave an amyloid nucleation score of -0.127 ± 0.37.

For the substance PNIKLSDRLGIIRREIWMVV, the amyloid nucleation score came out at 0.54 ± 0.39.

Substance PNPWRLRWLLALDMNLVGLQ had an amyloid nucleation score of 0.376 ± 1.1.

Turning to PNQVYGTAFCGDEKNRMRWK, the amyloid nucleation score is 4.6 ± 0.079.

For the substance PNYIRGSIINYILEYSISIN, the amyloid nucleation score stood at 0.02 ± 0.39.

With PPHLLFCYNMVLTWWLYAFA, the amyloid nucleation score is 0.088 ± 1.2.

PQLRLLPGVLGNPGNGHSRI displayed an amyloid nucleation score of 4.59 ± 0.098.

Substance PRSDNSFSVQVEFVDICEVK gave an amyloid nucleation score of -0.437 ± 0.56.

PSGTGWRLDGSV had an amyloid nucleation score of 0.09 ± 0.38.

The substance PSIGMVF came in with an amyloid nucleation score of 1.77 ± 0.53.

As for PSNPFHCVMKARKSLNGIDR, the amyloid nucleation score was -0.09 ± 0.29.

PSRDSV: the amyloid nucleation score is -1.06 ± 1.2.

Regarding PSSGLFASLIVMSTVRTDLI, the amyloid nucleation score was -0.307 ± 0.38.

Consider PSSLLNMDTTRGYHDPEWGI, for which the amyloid nucleation score is -0.381 ± 0.3.

For PSVTTS, the amyloid nucleation score is -0.482 ± 0.58.

PSWSPKAIKFQHVLYFVKFL returned an amyloid nucleation score of 0.236 ± 0.59.

As to PTAEV, the amyloid nucleation score came to 0.545 ± 0.76.

As for PTKSIMLFCLGLFCGYLARA, the amyloid nucleation score turned out to be 2.91 ± 0.093.

As for PTRYRKLKRQAKATYIHSNP, the amyloid nucleation score is -0.552 ± 1.6.

Values taken from the supplement of paper PMC12042874.
